Results from paper PMC6589827 (Biochemistry, 2019).

What was measured:
[1] = ITC titration of folate into the crowders; format: binding
hemoglobin = details: read-out: Kd of folate for central cavity of hemoglobin; cited from earlier work
R67 DHFR-NADP^+ = R67 DHFR-NADP^+ (Escherichia coli, UniProt P00383); test: ITC, DHF binding to binary complex of R67 DHFR and NADP+
EcDHFR = EcDHFR (Escherichia coli, UniProt P0ABQ4); details: for decrease of kcat, DHF reduction by EcDHFR: crowder at 50 mg/mL
apo-EcDHFR = apo-EcDHFR (Escherichia coli, UniProt P0ABQ4); test: ITC, NADP+ binding to apo-EcDHFR; parameters: species or system E. coli
R67 DHFR = R67 DHFR (Escherichia coli, UniProt P00383); test: Progress curve kinetics, reduction of DHF by R67 DHFR; format: biochemical; details: saturating NADPH, progress curves
Sequence of R67 DHFR (P00383 whole entry): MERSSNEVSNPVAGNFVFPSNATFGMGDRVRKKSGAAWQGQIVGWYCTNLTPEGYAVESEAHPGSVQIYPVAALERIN

Sequence of EcDHFR (P0ABQ4 whole entry): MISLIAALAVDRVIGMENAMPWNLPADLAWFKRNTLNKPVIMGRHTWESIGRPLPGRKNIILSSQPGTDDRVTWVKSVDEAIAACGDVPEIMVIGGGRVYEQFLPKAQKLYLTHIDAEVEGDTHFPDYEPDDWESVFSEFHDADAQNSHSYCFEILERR
Sequence of apo-EcDHFR (P0ABQ4 whole entry): as above
Sequence of R67 DHFR-NADP^+ (P00383 whole entry): as the sequence (P00383 whole entry) above

For `Nc1nc(=O)c2nc(CNc3ccc(C(=O)N[C@@H](CCC(=O)O)C(=O)O)cc3)cnc2[nH]1` [folate], the “heat of binding on titration into the crowders” value [1] is given as “no heat of binding” and the Kd (hemoglobin) is given as about 1000 µM.

For “Hemoglobin: bovine hemoglobin, 64,500 Da, protein crowder”, the “weakening of R67 DHFR affinity for DHF” value (R67 DHFR-NADP^+; crowder at 50 mg/mL) was 5.5 fold.

For casein, the “effect on kcat, DHF reduction by EcDHFR” value (EcDHFR; over the range of concentrations used) was “did not alter the kcat”.

With “lysozyme: hen egg-white lysozyme, 14,300 Da, protein crowder” the “decrease of affinity of NADP^+ for EcDHFR” value (apo-EcDHFR; crowder at 50 mg/mL) was 5 fold, the “effect on efficiency (kcat/KM) of R67 DHFR reduction of DHF” value (R67 DHFR) was “increases the efficiency” and the “decrease of kcat, DHF reduction by EcDHFR” value (EcDHFR) was “about 60%”.

B1: ovalbumin: protein crowder isolated from fresh eggs (protein, UniProt P01012 2-386, looked up)
Ovalbumin: GSIGAASMEFCFDVFKELKVHHANENIFYCPIAIMSALAMVYLGAKDSTRTQINKVVRFDKLPGFGDSIEAQCGTSVNVHSSLRDILNQITKPNDVYSFSLASRLYAEERYPILPEYLQCVKELYRGGLEPINFQTAADQARELINSWVESQTNGIIRNVLQPSSVDSQTAMVLVNAIVFKGLWEKAFKDEDTQAMPFRVTEQESKPVQMMYQIGLFRVASMASEKMKILELPFASGTMSMLVLLPDEVSGLEQLESIINFEKLTEWTSSNVMEERKIKVYLPRMKMEEKYNLTSVLMAMGITDVFSSSANLSGISSAESLKISQAVHAAHAEINEAGREVVGSAEAGVDAASVSEEFRADHPFLFCIKHIATNAVLFFGRCVSP
For B1, the “effect on affinity of NADP^+ for apo-EcDHFR” value (apo-EcDHFR; over the concentration ranges used (up to 150 mg/mL with PVP-55)) was “no effect on affinity”, the “effect on the affinity of R67 DHFR for DHF” value (R67 DHFR-NADP^+; crowder added, ITC) was “little effect” and the “decrease of kcat, DHF reduction by EcDHFR” value (EcDHFR) was “about 60%”.
